Source: US20140289906A1, “Compositions Having Dicamba Decarboxylase Activity and Methods of Use” (priority 2013, published 2014)

Test: 14C assay: 14CO2 capture from [14C]-carboxyl-labeled dicamba with IPTG-induced recombinant E. coli cells
Conditions: for Dicamba Decarboxylase Activity: IPTG-induced recombinant E. coli cells, 14CO2 from [14C]-carboxyl-labeled dicamba; for Enzymatic Detection level: dicamba decarboxylation activity

Row | Molecule | Dicamba Decarboxylase Activity | Enzymatic Detection level
1 | 64 (protein, listed as Achromobacter piechaudii) MAIQKIDMHAHFFPPITRQEAAALDPVNAPWLRPDADGATGQIMAGEREFRPVDATLWDPALRIEQMDRHGVDVQILCATPIMFGYTYPARPAADWAARMNDLALEHCAYAPSRLKALAQVPLQDLELACQEASRARAAGHLGVQIGNHVGPRDLDDETLVQFLIHCANNDIPVLVHPWDMMTDGRMKKWMLPWLVSMPAETQLGILSLILSGAFERIPRSLKLCFAHGGGSFAYLLGRVDNAWRHRDIIRQDCPQLPSSYTDRFYTDSAVFDPRSLRLLIDVMGEDRVLLGSDYPYPLGEQEVGRLVAHAELVPEVQQKILFRNTMTFFGLQPGLQPGLQS | Low | Low
2 | 72 (protein, Cupriavidus necator) MADCPCCVSPKRRRLLGSVSAIAAGMMAGLPALAAQPSTAAAGTGKPLSIDIHAHYYSESFLGLLGGEGKQFGGHFFRNDDSFTFQTPAGGLGPLPMKFIDVEQRVRDMDNSGVDVQAISLSVPMVYWADRTLNAKLARAWNTAASDVHRKHPTRFVVLATLPMLNANDAIDELEFAAGLPGVRGIYMGTNINNRDLDDPLFSPIFKRIEQLNLPIFLHPQQTVGGARLADFYLSNLLGNPFDTAIAASHLILGGVLDKYPALHFSLPHAGGALPILVGRIDAGWSMRSETKRVAQKPSSYLRRFSYDTISHSGPTLDFLIRNIGADRLVLGSDYCFDMGYEQPVRFLDRLALPDDQKRMVVGGNAARLLNL | Low | Low
3 | 69 (protein, listed as Microbacterium testaceum) MATSTEGQDVTDVHAHLLMPGLHAEVERRVPDEVQAAADLELRRNGLASLQASGRMIGERFPRLTDVRARLAAMDEQGVDRQWVSPSPNHFYPWANEGLATWASGEANRLIAEHVALAPDRLVGLGVVPLQHPHLVVDALDDAVLGRGLAGVEISSFAGDVELSDERLESFWARAAELRAVVFLHPFGCSLDERLDRFYLSNTVGQPTENAVALSHLIFSGVLDRHPGLRLIAAHGGGYLPTAIGRSDRAWRVRPEARGCAHAPSTYLSKLWFDTVVHDERALRWLVEAAGADRVLLGSDFPFDMGLDDPVAFVRGAGLQDAEVSGILGGNAAELLRTRVHA | No | No
4 | 60 (protein, listed as Catenulispora acidiphila) MARGFVRTAVVPGFWDAGWRGAGQPGGMRVDVHAHLFPAAYLDLLDDFRQDGGVGTREVRALGGGDGERELRLRLAAMDAVGVDVQLLSTCPQGPYTGDPTAAVEAARCANVALAQTVAQYPERLRALAALPLPHILASVDELNRAMEQDGMLGAAVGTSILGRPLSHPDFEPLFAALNRRKGVLFVHPIGESAGSPLMQASKLDRVIGYAAEVSTAILQLFQAGLTVKYPDIRIIAPHMGGYLPFLIQRLDRHRDWYLPKDAPSAGQLMRGIAYDTANPLPAALRLTAEVVGPERLLLGTDYPFEQGPSLRDHIEYILAAGLPEAQAKMIVDVNAADFLDMRSGAEQPPV | No | No
5 | 73 (protein, listed as Sphaerobacter thermophilus) MARIDAHAHAQPPEYLDALLASGRYESVRDAEGRIVVRERGSRFLTITPQMHHPEQRVAEMDEAGIDMQILSVTTPQVYFLQGQAAVDLARRCNDYLADIVRSYPTRFRALASVPLTADPDAAVREFVRCLDDLGMVGAIIGSNIDGRPIDDPAFDAFYAEADRRATTLFIHPMVPAGIEVMNPYALAPLVGFMFDTTLAVSRLIFSGFFERYPRVKVLVGHLGAAVPYLAGRLDIGWRSYSDCQGIPHPPTEYIRRLYLDTVSFHAPALRCALETVGPDRIVFGSDYPHVIGDVGGAIASIQQALPATTHDGVLGHTAAELFGVSA | Low | Low
6 | 74 (protein, listed as Ramlibacter tataouinensis) MATVIDVHTHMFTTKWLELLKKEGGQYNIQTRPDGQQEIFRGNTPVVIPQKGHFDWKLRIQHMDQAGIDVSVVSLTCPNVYWGGEDVSVRAAREANDNVAQAQTAYPDRIRWFASLPWEYMATVIDVHTHMFTTKWLELLKKEGGQYNIQTRPDGQQEIFRGNTPVVIPQKGHFDWKLRIQHMDQAGIDVSVVSLTCPNVYWGGEDVSVRAAREANDNVAQAQTAYPDRIRWFASLPWEYPQRAVEELERSCAQGAAGVMVLANVAGRSLTDPLFAPVWAEIDRRALPVLVHPTDPPGVDLMDMTKFDLSWSVGFMFDTTLAITRMIFEGFFDRYPNLRIIASHGGGTLPYLVGRFEKGDEVELASRRQMKRKPTDYLRHIHYDCITYNLGALQYLISVVGAGQVMFGTDWPHWVHDTRGAFANTAQLPQEQTRAVRGANAQRLFKL | Low | Low
7 | 61 (protein, listed as Gordonia amarae) MATGAGSGVPSPADRVIVRSPGVIDVHAHAVLPMSLGCAGAAGPEIGYREDGSPFFRVGEYVLNGVRYEGSAFMDPEVRVAAMDAAGIGLQMISPNPITYFTRLDARSATDYARAHNDAIAEAAGRHPGRLVGAAQLPMQDVPAAIAELERSVRELGLVAAYIDTDIGDRTLDAPELDDFYSAAVELDVPVFIHPSPVGQEGPPDDTRLRRFDLDLLLGFSYDETLAVAALVFGGVLERHPALDVCLSHGGGTLAFVAGRFARAVAKPRAWVPEFLVENGIESYLRRLWLDTHVHSAGSLRLLIDTVGTDRLVFGTNFAGWDADGATEVDALGDLRETTTANAAHLLRLGRA | No | No
8 | 68 (protein, listed as Hoeflea phototrophica) MAIIDAHTHTLCPAVNEKVAGTIKPDSVPYQRDMSPESKEQDHTQFPELKIMFNQVERRLADMARMGIDRQVIAPAPGQQHYWAEPKLLAEISALQNDHVAELVARAPDRFAGIGTLPMTDPDAAVAEITRATRELGLRVFQIDSRVMERELSDASLDPIYAALEAAGAGLMIHPLGFSNGERLTPFFMVNSVAQPLEELLAFNHLVFGGVLDRFPKLKVYIAHGGGFAPFYIGRFDHAWKVRPEVNRLTPSAPSTYLRRIYFDTCVYRTDHIETLVRTVGADRVMLGSDYPFDMGDTDPLGLLNACQGLSDDEKATISSKVAIDFFGLET | No | No
9 | 70 (protein, listed as Alicyclobacillus acidocaldarius) MAIEPNRAADVHTHFLPTEVLEFLKREPRIQVDLERRAPDKEPFLTVEGRWSFELKRMFVDFEAFASAYRQAGIGLALVSPLPQLFVYHLPAEMGAQVAEVYNDALRDVLAPHRERFRPLATLPLADPTAAARELERRMDEGFVGAIVGPGVGEALIGDEAFWPLWEVADARRAVLFLHPLLHADPRAARLMLPNLVGVPWETTLAAAHLVLSGLLDRYPGARVLLAHGGGFLPYQIGRIEQGYDVWPQVRGRLQDRPTAYLRRMFYDNVLWSDAALRCLIDVVGADRVLAGSDFPFDLSAWPPRPGADVSVLAGGSGREGRLS | Low | Low
10 | 62 (protein, Bacillus thuringiensis serovar pulsiensis) MAVGGKNFRDVTDQVWCPKKRIEDMDREGVDIQVLSPIPVTFSYWAKPEEAESMARIQNDFIAETVLAYPDRFVGLGTVPMQDGETAIREMERCITELNLHGIEIGTNVNGKNLDDPSFIEFFRMAEKWQVPIFIHPWETLGRDRMPHHNFMYTVGMPSETALAAATLIWSGIMEKFPRLKVCFAHGGGSFPYILPRLDQGWKVWPHLRLTTHPPSYYAKKFYFDSLNYDPINLKYMIERFGHEKIFMGSDYPFLLREVDPGKVIDETASLSEEQKAAMLGGNAAEFLNIDIKKRGVAYAESTNT | No | No
11 | 71 (protein, listed as Burkholderia dolosa) MARAGHRAARTRQSRPGDRTMTCSCCMSAGRRRVLGAFAALAGAPKGPRAASAAQPAAASKPTRGDATARNRHSRALLPGKASASWSATKASGSGGAFAWDDTTFTFRTPAGGLGPLPMKFIDVDARLRDMDASGVDVQALSLSVPMAYWGDRPFNAKLARAWNTAASRVHVRAPDRFVVLATLPMLDATDAIDELERASELPGVRGVYMGTNIDNRDLDDPRFAPVFARIEQLGLPVFLHPQQTVGGARLGDFYLSNLLGNPFDTAIAASHLILGGVLDRHPALHFTLPHAGGALPILVGRLDAGWTVRAETRRLAHQPSGYLRRFSYDTVSHSGPVLNFLIENVGIDRLVLGSDYCFDMGYEQPVRFLDRLDLTPDERAMVIGGNAGRLLRI | Low | Low
12 | 76 (protein, listed as Polymorphum gilvum) MAKKIDIFNHIWPEPFFKALIAHIGEMTDITMRSGAVPMMTNLDRRFEVMDMFGPDYMQVLSLASPPLEKLADPAKALELSRIGSDSLAELCQRYPERFPAFIGTAPLSNPAAVVGECRRAIEDLGAAGMQIFTNVAGKPLDLAEFEPFFEYMASAGKPVWLHPARGEAFADYQTEKRSEYEIWWTFGWPYETSAAMARLVFSRMFDKYPGLKVITHHAGGMVPFFEGRVGPGWDQMGARTTDRDLAAVRKALKRPHLDYFKEFYADTASFGSRKAIEHAIEFFGEDRVLFASDAPFDPEGGPMYIRETMRCIDSLDLTDAQRRKIYHGNATALLGLSL | No | No
13 | 75 (protein, listed as Ectocarpus siliculosus) MAKIDSYTHFACPAFMDHLEAESGHPMVFRGLFSSIPELSDIDLRIRYMDEHGIDVHCLVPLPWLECEPGLHADEGKALEACRIANDEMARVVARFPDRLIGVALIPTTTEQAMIQETTRAVKELGMAGVALFVGPTAKPPDMACFEGLYRTCEELGAVVWMHPCRPQSYADYDSYKGEGSKHQIWNTFGWIYDTSVAMVHIALAGVFRRYPGLKVVTHHHGAMVPFFTARFDTQRRNFQEVEGDDLLEDLRLFYCDTATFGESAANIQQAIDFFGKSQVLFGTDTPMDMGTRGMFTRTTIASVEALGAAPEDKESFYAGNVLDMLGERFAGISGARGAVAARPKGDSTRIAASL | Low | Low
